# Test results published in EP4755916A1 (Jiangsu Hengrui Pharmaceuticals Co., Ltd., dated 2026).
# Where two headings read alike, the source gives them in different places.
# Legend:
# [1] = target: T1, human BTN3A1 recombinant protein with his tag (h-BTN3A1-his) (human, UniProt O00481 30-254); experiment: SPR Biacore 8K, antibody captured on Protein A chip, BTN3A1 as analyte, 1:1 Langmuir fit
# T1 construct: range 30-254; Bought from Kactus; also called human BTN3A1 antigen protein (Kactus Biosystems, BTN-HM1A1); not shown: his tag
# T1 sequence (O00481 30-254 limits assumed): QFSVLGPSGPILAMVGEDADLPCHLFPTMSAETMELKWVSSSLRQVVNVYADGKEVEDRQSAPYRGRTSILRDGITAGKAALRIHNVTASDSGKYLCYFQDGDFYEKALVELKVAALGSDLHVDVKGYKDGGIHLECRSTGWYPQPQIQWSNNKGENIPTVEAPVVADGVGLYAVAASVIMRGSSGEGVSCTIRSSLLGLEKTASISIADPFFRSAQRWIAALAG
# [2] = target: T2, human BTN3A1 expressed on HEK293 cells (human, UniProt O00481 30-513); experiment: flow cytometry, HEK293 cells overexpressing human BTN3A1
# T2 construct: whole, on cells; also called BTN3A1-expressing HEK293 cells; human BTN3A1-overexpressing cells
# T2 sequence (O00481 30-513): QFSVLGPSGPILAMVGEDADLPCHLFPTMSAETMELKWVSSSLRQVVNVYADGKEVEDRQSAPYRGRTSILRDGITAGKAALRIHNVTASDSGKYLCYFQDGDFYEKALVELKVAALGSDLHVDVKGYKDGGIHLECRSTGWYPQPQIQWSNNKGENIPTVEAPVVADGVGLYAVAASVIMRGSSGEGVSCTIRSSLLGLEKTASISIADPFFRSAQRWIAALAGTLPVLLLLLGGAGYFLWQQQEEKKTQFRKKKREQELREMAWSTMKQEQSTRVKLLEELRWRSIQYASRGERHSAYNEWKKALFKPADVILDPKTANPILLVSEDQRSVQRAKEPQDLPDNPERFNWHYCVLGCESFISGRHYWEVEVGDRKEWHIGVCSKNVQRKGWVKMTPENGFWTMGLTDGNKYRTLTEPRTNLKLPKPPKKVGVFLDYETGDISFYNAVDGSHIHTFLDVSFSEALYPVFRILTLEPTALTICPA
# [3] = target: T1, human BTN3A1 recombinant protein with …; experiment: ELISA, plate coated with h-BTN3A1-his, antibody titrated
# [4] = target: T2, human BTN3A1 expressed on HEK293 cells; experiment: flow cytometry, HEK293 cells (endogenous BTN3A knocked out) overexpressing human BTN3A1
# [5] = target: T1, human BTN3A1 recombinant protein with …; experiment: SPR Biacore 8K, antibody captured on Protein A chip, BTN3A1 as analyte, 1:1 Langmuir fit; remark: listed apart in the source
# [6] = target: T3, human BTN3A3 overexpressed on HEK293 cells (human, UniProt O00478 30-584); experiment: flow cytometry, HEK293 cells (endogenous BTN3A knocked out) overexpressing human BTN3A3
# T3 construct: whole, on cells; HEK293 cells with endogenous BTN3A knocked out; also called human BTN3A3-overexpressing cells
# T3 sequence (O00478 30-584): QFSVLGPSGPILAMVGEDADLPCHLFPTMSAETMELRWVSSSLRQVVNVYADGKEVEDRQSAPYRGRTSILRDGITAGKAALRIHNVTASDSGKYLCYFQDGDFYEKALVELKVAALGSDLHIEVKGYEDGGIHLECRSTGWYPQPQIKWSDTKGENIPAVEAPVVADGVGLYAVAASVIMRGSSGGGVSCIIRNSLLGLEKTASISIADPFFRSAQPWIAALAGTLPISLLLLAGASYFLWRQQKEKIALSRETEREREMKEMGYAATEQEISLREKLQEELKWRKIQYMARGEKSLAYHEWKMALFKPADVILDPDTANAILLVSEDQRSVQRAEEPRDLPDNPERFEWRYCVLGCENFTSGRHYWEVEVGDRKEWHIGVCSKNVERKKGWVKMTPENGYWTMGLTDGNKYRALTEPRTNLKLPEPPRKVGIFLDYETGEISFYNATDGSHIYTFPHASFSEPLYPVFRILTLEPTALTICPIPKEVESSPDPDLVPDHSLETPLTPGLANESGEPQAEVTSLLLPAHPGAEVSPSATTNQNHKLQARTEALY
# [7] = target: T2, human BTN3A1 expressed on HEK293 cells; experiment: flow cytometry, HEK293 cells (endogenous BTN3A knocked out) overexpressing human BTN3A1; remark: listed apart in the source
# [8] = target: T4, human BTN3A2 overexpressed on HEK293 cells (human, UniProt P78410 30-334); experiment: flow cytometry, HEK293 cells (endogenous BTN3A knocked out) overexpressing human BTN3A2
# T4 construct: whole, on cells; HEK293 cells with endogenous BTN3A knocked out; also called human BTN3A2-overexpressing cells
# T4 sequence (P78410 30-334): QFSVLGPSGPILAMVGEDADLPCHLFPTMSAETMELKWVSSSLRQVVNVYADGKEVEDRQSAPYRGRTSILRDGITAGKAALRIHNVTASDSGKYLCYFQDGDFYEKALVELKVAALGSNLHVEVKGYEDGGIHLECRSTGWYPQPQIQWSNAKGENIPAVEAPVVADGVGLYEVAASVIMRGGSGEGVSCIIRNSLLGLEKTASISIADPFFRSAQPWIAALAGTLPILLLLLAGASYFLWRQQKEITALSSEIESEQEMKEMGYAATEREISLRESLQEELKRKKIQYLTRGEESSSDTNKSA
Kd [1] [nM],koff [1] [s⁻¹],kon [1] [M⁻¹ s⁻¹],EC50 [2] [nM],Max FACS mean fluorescence intensity (MFI) [2] [MFI],EC50 [3] [nM],EC50 [4] [nM],Kd [5] [nM],koff [5] [s⁻¹],kon [5] [M⁻¹ s⁻¹],EC50 [6] [nM],EC50 [7] [nM],EC50 [8] [nM],Binder
0.174,0.000172,985000,11.7,95800,0.0196,8.2,–,–,–,–,–,–,"20A3 (a human-rabbit chimeric antibody, parent) (antibody, human IgG1, kappa, V domains shown, Rabbit variable regions on the human IgG1 constant region with L234F/L235E/P331S (Eu numbering) and human Ckappa) VH: QSVEESGGRLVTPGTPLTLTCTASGFTINNYYMNWVRQAPGKGLEWIGIIYGSDNTYYASWAKGRFTISKTSTTVDLIMTSPTTEDTATYFCVRNLDYSSAYFHIWGPGTLVTVSS VL: QVLTQTPSPVSAAVGGTVSISCQASQSVYNNNRLAWYQQKPGQPPNLLIYEASKLASGVPSRFKGSGSGTQFTLIISEVQCEDAATYYCQGYYSGFIYPFGGGTEVVVKR"
0.228,0.000182,800000,17.4,98000,0.0228,15.4,–,–,–,–,–,–,"17G4 (a human-rabbit chimeric antibody, parent) (antibody, human IgG1, kappa, V domains shown, Rabbit variable regions on the human IgG1 constant region with L234F/L235E/P331S (Eu numbering) and human Ckappa) VH: QSLEESGGRLVTPGTPLTLTCTASGFSLNDYYITWVRQAPGKGLEWIGVIYGSSNTVYASWAKGRFTISKTSTMVDLRITSPTTEDTATYFCARGYLASSADIWGPGTLVTVSL VL: QVLTQTPSPVSAAVGGTVTINCQSSQSVYNNNRLAWYQQKPGQPPKLLIYDASTLASGVPSRFKGSGSGTDFTLTISDLECADAATYYCQTYYSGYIWAFGGGTEVVVKR"
–,–,–,19.8,89700,–,–,–,–,–,–,–,–,"17G4-H5L3 (antibody, human IgG1, kappa, V domains shown, Humanized; human IgG1 constant region with L234F/L235E/P331S and human Ckappa; also called 17G4's humanized antibody) VH: EQQLVESGGGLVQPGGSLRLSCAASGFSLNDYYITWVRQAPGKGLEWIGVIYGSSNTVYASWAKGRFTISKTSTMVYLQMNSLRAEDTAVYFCARGYLASSADIWGQGTLVTVSS VL: DQQLTQSPSSLSASVGDRVTITCQSSQSVYNNNRLAWYQQKPGKPPKLLIYDASTLASGVPSRFSGSGSGTDFTLTISSLQPEDVATYYCQTYYSGYIWAFGGGTKVEIKR"
–,–,–,10.2,91200,–,–,0.174,0.000172,985000,5.12,2.98,6.76,"20A3-H2L2 (antibody, human IgG1, kappa, V domains shown, Humanized; human IgG1 constant region with L234F/L235E/P331S and human Ckappa; also called 20A3's humanized antibody) VH: EVQLVESGGGLVQPGGSLRLSCAASGFTINNYYMNWVRQAPGKGLEWVSIIYGSDNTYYASWAKGRFTISKDNSKNTVYLQMNSLRAEDTAVYYCVRNLDYSSAYFHIWGQGTLVTVSS VL: DIQLTQSPSSLSASVGDRVTITCQASQSVYNNNRLAWYQQKPGKPPKLLIYEASKLASGVPSRFSGSGSGTDFTLTISSLQPEDVATYYCQGYYSGFIYPFGGGTKVEIKR"
